The results in this text go back to paper PMC7692894.

In data set [1] the target is milk-derived short digestion-resistant peptides with the mass <3 kDa. The experiment in a line: SEC; milk peptide fraction <3 kDa (MP) run beside pepsin autoproteolysis peptides (PP); physiologically relevant conditions; area under the curve at 215 nm; details in Supplementary Information. For orientation: SEC sorts molecules by how far they enter the pores of the column.

Test in data set [2]: as above

Regarding “milk-derived short digestion-resistant peptides with the mass <3 kDa”, the stoichiometry N in data set [1] was > 4. The “percent of the peptides aggregated” value in data set [2] is on record as 43.5% of the peptides aggregated into larger complexes.

A word on the stoichiometry N: it is a count of units in the complex or per binding partner.
